From US20060211022A1

Target: NGFR/EPOR hybrid receptor NECD (NGFR/EPOR chimera D) on 32D/NECDsc-14 cells (human; mouse)
Test: cell-based or functional assay

NGFR/EPOR hybrid receptor NECD (NGFR/EPOR chimera D) on 32D/NECDsc-14 cells (human; mouse), sequence (chain, as listed by the source mutant limits assumed): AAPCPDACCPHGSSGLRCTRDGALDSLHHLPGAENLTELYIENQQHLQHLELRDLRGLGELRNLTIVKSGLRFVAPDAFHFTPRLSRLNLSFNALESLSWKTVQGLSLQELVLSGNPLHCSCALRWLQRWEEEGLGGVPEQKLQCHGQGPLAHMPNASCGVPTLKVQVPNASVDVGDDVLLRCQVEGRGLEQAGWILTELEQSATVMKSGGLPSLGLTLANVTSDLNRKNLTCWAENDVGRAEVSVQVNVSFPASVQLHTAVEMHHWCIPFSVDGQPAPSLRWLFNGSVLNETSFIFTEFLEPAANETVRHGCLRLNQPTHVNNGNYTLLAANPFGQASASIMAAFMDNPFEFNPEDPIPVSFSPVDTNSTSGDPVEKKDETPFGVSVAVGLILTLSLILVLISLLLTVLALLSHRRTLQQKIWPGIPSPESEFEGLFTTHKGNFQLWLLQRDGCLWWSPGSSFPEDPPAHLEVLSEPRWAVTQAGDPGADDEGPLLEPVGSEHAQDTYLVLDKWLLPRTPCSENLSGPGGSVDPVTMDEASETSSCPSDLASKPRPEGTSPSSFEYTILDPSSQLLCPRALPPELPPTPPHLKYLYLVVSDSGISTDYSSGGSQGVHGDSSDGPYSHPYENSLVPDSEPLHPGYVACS
NGF, sequence (P01138 122-241): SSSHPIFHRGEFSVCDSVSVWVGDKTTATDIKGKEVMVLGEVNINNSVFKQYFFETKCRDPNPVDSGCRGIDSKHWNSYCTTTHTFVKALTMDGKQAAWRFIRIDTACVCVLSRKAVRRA

## NGF (ligand)
  NGF dose response in serum matrix, 0.02 ng/mL NGF, 1% human serum: 947
  NGF dose response in serum matrix, 0.02 ng/mL NGF, 2% rat serum: 1190
  NGF dose response in serum matrix, 0.02 ng/mL NGF, 5% cyno serum: 2180
  NGF dose response in serum matrix, 0.02 ng/mL NGF, no serum: 595
  NGF dose response in serum matrix, 0.07 ng/mL NGF, 1% human serum: 1480
  NGF dose response in serum matrix, 0.07 ng/mL NGF, 2% rat serum: 3520
  NGF dose response in serum matrix, 0.07 ng/mL NGF, 5% cyno serum: 5760
  NGF dose response in serum matrix, 0.07 ng/mL NGF, no serum: 1390
  NGF dose response in serum matrix, 0.21 ng/mL NGF, 1% human serum: 5830
  NGF dose response in serum matrix, 0.21 ng/mL NGF, 2% rat serum: 12000
  NGF dose response in serum matrix, 0.21 ng/mL NGF, 5% cyno serum: 15800
  NGF dose response in serum matrix, 0.21 ng/mL NGF, no serum: 5420
  NGF dose response in serum matrix, 0.62 ng/mL NGF, 1% human serum: 13400
  NGF dose response in serum matrix, 0.62 ng/mL NGF, 2% rat serum: 29400
  NGF dose response in serum matrix, 0.62 ng/mL NGF, 5% cyno serum: 32500
  NGF dose response in serum matrix, 0.62 ng/mL NGF, no serum: 17100
  NGF dose response in serum matrix, 1.85 ng/mL NGF, 1% human serum: 19500
  NGF dose response in serum matrix, 1.85 ng/mL NGF, 2% rat serum: 37700
  NGF dose response in serum matrix, 1.85 ng/mL NGF, 5% cyno serum: 43100
  NGF dose response in serum matrix, 1.85 ng/mL NGF, no serum: 27400
  NGF dose response in serum matrix, 5.56 ng/mL NGF, 1% human serum: 22200
  NGF dose response in serum matrix, 5.56 ng/mL NGF, 2% rat serum: 43400
  NGF dose response in serum matrix, 5.56 ng/mL NGF, 5% cyno serum: 52200
  NGF dose response in serum matrix, 5.56 ng/mL NGF, no serum: 35200
  NGF dose response in serum matrix, 16.67 ng/mL NGF, 1% human serum: 24600
  NGF dose response in serum matrix, 16.67 ng/mL NGF, 2% rat serum: 42400
  NGF dose response in serum matrix, 16.67 ng/mL NGF, 5% cyno serum: 51800
  NGF dose response in serum matrix, 16.67 ng/mL NGF, no serum: 39700
  NGF dose response in serum matrix, 50.00 ng/mL NGF, 1% human serum: 19700
  NGF dose response in serum matrix, 50.00 ng/mL NGF, 2% rat serum: 46900
  NGF dose response in serum matrix, 50.00 ng/mL NGF, 5% cyno serum: 56400
  NGF dose response in serum matrix, 50.00 ng/mL NGF, no serum: 41000
  NGF dose response in serum matrix, 150.00 ng/mL NGF, 1% human serum: 18600
  NGF dose response in serum matrix, 150.00 ng/mL NGF, 2% rat serum: 49500
  NGF dose response in serum matrix, 150.00 ng/mL NGF, 5% cyno serum: 62100
  NGF dose response in serum matrix, 150.00 ng/mL NGF, no serum: 44100
  [3H]-thymidine counts, NECDsc-14 NGF-dependent, 0.02 ng/ml: 1960 counts
  [3H]-thymidine counts, NECDsc-14 NGF-dependent, 0.07 ng/ml: 4690 counts
  [3H]-thymidine counts, NECDsc-14 NGF-dependent, 0.21 ng/ml: 8030 counts
  [3H]-thymidine counts, NECDsc-14 NGF-dependent, 0.62 ng/ml: 16800 counts
  [3H]-thymidine counts, NECDsc-14 NGF-dependent, 1.85 ng/ml: 22400 counts
  [3H]-thymidine counts, NECDsc-14 NGF-dependent, 5.56 ng/ml: 24200 counts
  [3H]-thymidine counts, NECDsc-14 NGF-dependent, 16.67 ng/ml: 22900 counts
  [3H]-thymidine counts, NECDsc-14 NGF-dependent, 50.00 ng/ml: 21600 counts
  [3H]-thymidine counts, NECDsc-14 NGF-dependent, 150.00 ng/ml: 20900 counts
